From paper PMC13293227 come the findings set out here.

The target in the data set is T1, GST-ZAKα 701-800 (Homo sapiens, UniProt Q9NYL2 701-800).
T1 sequence: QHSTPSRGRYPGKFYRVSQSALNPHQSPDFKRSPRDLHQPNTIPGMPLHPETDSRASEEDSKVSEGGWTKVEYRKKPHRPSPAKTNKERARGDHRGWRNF
The data set is described as follows: EMSA; supershift with GST antibody; EMSA: 20 mM HEPES pH 7.6, 3 mM MgCl2, 40 mM KCl, 5% glycerol, 2 mM DTT, 100 fmol probe in 20 µl, 20 min on ice; 4% native PAGE, 0.25x TBE. The following applies: protein: recombinant; tags: GST; label: 5'-IRDye700; single strand, seemingly unstructured. (In general: A gel shift assay detects complexes by their altered migration in electrophoresis.)

Take AGCUUAGGAAUAUCAAUGUUAAGUAG (ssRNA) [ARE-IRDye700]: the binding result is listed as “binds”.
